Data taken from US20210214417A1 (KAHR MEDICAL, published 2021).

Target: T1, recombinant human His-tagged CD47 protein (ACRO Biosystem, cat # CD7-H5227) (human, UniProt Q08722 19-139)
T1 construct: also called Recombinant human CD47; not shown: His tag
Assay: competition ELISA: recombinant human CD47 on the plate, fusion protein added first, then biotinylated SIRPα as the blocked ligand, streptavidin-HRP and TMB, 450 nm; EC50 calculated over 0 to 0.7 ug/ml
Experimental: SIRPα-4-1BBL fusion protein, or a positive control anti CD47 antibody were added to the plate. Following wash biotinylated recombinant human SIRPα was added followed by streptavidin HRP and TMB substrate. Interaction of SIRPα with CD47 was measured by absorbance at 450 nm.
Methods—ELISA plates were coated overnight with recombinant human CD47. The plates were washed and incubated for 1 hour with different concentrations of the produced SIRPα-4-BBL fusion proteins or a positive control anti CD47 antibody. Following, a biotinylated SIRPα was added; and following 1 hour incubation the plates were washed and blotted with Streptavidin-HRP and TMB substrate according to a standard ELISA protocol (FIG. 13A). Plates were analyzed using a Plate reader (Thermo Scientific, Multiscan FC) at 450 nm, with reference at 620 nm.

T1 sequence (Q08722 19-139 limits assumed): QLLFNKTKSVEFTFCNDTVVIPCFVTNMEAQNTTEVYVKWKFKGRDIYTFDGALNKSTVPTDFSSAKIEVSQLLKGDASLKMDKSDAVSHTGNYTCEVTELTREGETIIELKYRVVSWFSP

EC50: 0.103 µg/mL
B1: C-terminal his-tagged DSP107_V3.1 (SEQ ID NO: 17) (other)
chain: EEELQVIQPDKSVLVAAGETATLRCTATSLIPVGPIQWFRGAGPGRELIYNQKEGHFPRVTTVSDLTKRNNMDFSIRIGNITPADAGTYYCVKFRKGSPDDVEFKSGAGTELSVRAGSGARASPGSAASPRLREGPELSPDDPAGLLDLRQGMFAQLVAQNVLLIDGPLSWYSDPGLAGVSLTGGLSYKEDTKELVVAKAGVYYVFFQLELRRVVAGEGSGSVSLALHLQPLRSAAGAAALALTVDLPPASSEARNSAFGFQGRLLHLSAGQRLGVHLHTEARARHAWQLTQGATVLGLFRVTPEIPAGLPSPRSEHHHHHH
notes: also called (CH)-V3.1; DSP107_var3.1 with C-terminal His tag
